These results are taken from patent publication US20060148017A1 (published 2006).

One series deals with T1, Zip 1.
T1 sequence: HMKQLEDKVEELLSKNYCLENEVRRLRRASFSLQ

A further series deals with T2, Zip 2.
T2 sequence: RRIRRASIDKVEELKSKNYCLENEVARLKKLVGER

For another series, the system named is T3, Zip4T.
T3 sequence: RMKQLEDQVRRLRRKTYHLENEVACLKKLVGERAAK

In a further series the test system is T4, Zip4S.
T4 sequence: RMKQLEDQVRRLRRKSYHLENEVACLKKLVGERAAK

Series [1] deals with the molecule itself. In words: circular dichroism thermal denaturation (self-association of unmodified Zip4S is implied).
Procedure: The circular dichroism (measured in units of ellipticity) of proteins at 222 nm provides a measure of the amount of α-helix present in the structure, with a large, negative ellipticity indicting a high level of helicity. […] In all experiments described herein, peptide concentration was determined by tyrosine absorbance at 280 nm in 6M GuHCl.

On to protein kinase A (PKA), for which the “phosphorylation by reverse-phase HPLC and radioactive assay” value in the series with Zip 1 is “The peptides were both shown to be good substrates for PKA by reverse-phase HPLC and radioactive assay”; with Zip 2, “The peptides were both shown to be good substrates for PKA by reverse-phase HPLC and radioactive assay”. Besides, the “timecourse of phosphorylation (32P incorporation)” value in the series with Zip4T is “Zip4T is also phosphorylated, but at a slower rate, with full phosphorylation achieved in 30 minutes in this assay”.
For the molecule “Ca2+/Calmodulin-dependent Protein Kinase (CaMKII)”, the “timecourse of phosphorylation (32P incorporation)” value with Zip4S was “CaMKII was unable to phosphorylate Zip4S”.

B1: Zip4S (peptide)
peptide: RMKQLEDQVRRLRRKSYHLENEVACLKKLVGERAAK
notes: GCN4 numbering)
Consider B1, for which, in series [1], the binding result was “binds”.
